Measured values as given in patent US9529005B2, “Modulating bacterial MAM polypeptides in pathogenic disease” (priority 2011, dated 2016).
Read-outs that look alike come from different tables or passages of the source.

Tests used:
[1] = system: HeLa cells; type: cell-based; details: 500 μM heparin from intestinal mucosa
[2] = Lipid overlay assay; type: binding; details: MBP-MAM proteins
Method: Pre-spotted PIPstrips™ (Echelon Biosciences Inc.) were incubated in T-TBS containing 5% dry milk powder for one hour at 22° C. MBP-MAM proteins were diluted into blocking buffer to give a final concentration of 10 μM and incubated with the PIP strip for one hour at 22° C. Strips were washed with T-TBS three times for 10 minutes each and incubated with His antibody (QIAGEN) diluted 1:1000 into blocking buffer at 22° C. for one hour. Strips were washed three times with T-TBS and incubated with anti-mouse HRP-conjugated secondary antibody (GE Healthcare) diluted 1:5000 into blocking buffer for 1 hour at 22° C. After three more washes, bound proteins were detected using the ECL plus detection system (GE Healthcare).

[3] = system: V. parahaemolyticus POR1; assay: BL21 expressing MAM constructs blocking POR1 attachment and POR1-mediated cytotoxicity; details: construct expressed on E. coli BL21, identical multiplicity of infection
[4] = Liposome association assay; type: binding; details: for decrease of binding to PA-containing liposomes (apparent affinity): individual GST-mce domains, 1-80 mol % PA, densitometry, relative to high binding mce domains
Method: PBS-buffered liposomes were prepared from 1,2-Dioleoyl-sn-glycero-3-phosphocholine (PC) or mixtures of PC and 1,2-dioleoyl-sn-glycero-3-phosphate (PA) (both Avanti Polar Lipids Inc.) as described previously (Selyunin et al., 2011), but using PBS as buffer. 300 μg liposomes were incubated with 100 μg MBP-MAM protein in PBS for one hour at 22° C. Mixtures were centrifuged at 100 000×g, 4° C. for one hour and both pellet and supernatant fractions were separated by SDS-PAGE and proteins were detected by Coomassie staining.
Binding of GST and GST-mce constructs to liposomes were carried out as described in the literature (Krachler et al., 2011). 300 μg liposomes containing PC alone or 1-80 mol % PA were incubated with 100 μg GST and GST-mce proteins in PBS for one hour at 22° C. Mixtures were centrifuged at 100,000×g, 4° C. for one hour and both pellet and supernatant fractions were separated by SDS-PAGE and proteins detected by Coomassie staining Band intensities were determined using the gel analysis software UN-SCAN-IT (Silk Scientific Inc.) and intensities of pellet samples (% bound) were expressed as fraction of total intensities (supernatant and pellet samples combined).

[5] = system: trypsinized cells; assay: Fluorescence attachment assay of labeled MAM7 on trypsinized cells; type: binding; details: cells treated with trypsin
Method: HeLa cells were cultured in sterilized Corning costar 96 well plates (15 000 cells/well) for 16 hours prior to experiments. ALEXAFLUOR®-labeled (fluorescent dye) proteins were diluted into PBS to give final concentrations of 0.1-100 μM and incubated with cells washed with PBS for 1 hour at 37° C. Initial fluorescence and fluorescence output were measured on a plate reader (λexcitation 485 nm, λemission 520 nm) prior to and following three washes with PBS, respectively. Data was expressed as % bound fluorescence and corrected for values determined for MBP alone. Levels of bound protein were blotted as a function of protein concentration and data were fit to a single-site binding model using Sigma Plot. For fluorescence attachment assays on trypsinized cells, cells were detached from the culture dish by trypsinization, which was stopped by adding DMEM after 5 minutes. Cells were adjusted to 600,000/ml in PBS and incubated with 100 μM labeled MBP-MAM7 or MBP in PBS for 30 minutes at 37° C. Fluorescence of the cell suspension was measured before and after extensive washing with PBS as described above.
Attachment assays with live bacteria or purified labeled protein were carried out as described (Krachler et al., 2011). […]

[6] = system: HeLa cells; assay: Fluorescence attachment assay: saturation binding of labeled MBP-MAM proteins to HeLa cells
[7] = Pull-down of liposomes (50 mol % PA, 50 mol % PC) on immobilized GST-mce domains; type: binding; details: 50 mol % PA and 50 mol % PC, molybdophosphoric acid assay
Method: Liposomes in load, flowthrough and eluate fractions were quantified using the method of Worth an Wright (1977). Briefly, samples were extracted with a mixture of chloroform and methanol, centrifuged and molybdophosphoric acid (Sigma) was added to the organic phase. Samples were centrifuged and the aqueous phase removed. Metol and sodium bisulfate were added to reduce the organic phase and the aqueous phase was removed again following centrifugation. The amount of phospholipid was determined by measuring absorbance at 680 nm and expressed as fraction of the amount detected in loaded fractions.
Although the inventors had previously shown that MAM1 is sufficient to bind to phosphatidic acid, it was unclear how the other mce domains contributed to phosphatidic acid binding in the absence of fibronectin. The inventors tested all seven individual mce domains (mce1-mce7) for phosphatidic acid binding using liposome association assays. Proteins were incubated with liposomes containing a mixture of PC and increasing amounts (1-80 mol %) of PA, followed by separation of liposome-bound and un-bound fractions by ultracentrifugation. All fractions were analyzed by SDS-PAGE (data not shown) followed by densitometry (FIG. 18A). […] When the inventors analyzed the mce domains of MAM7 for overall charge, they found only minor differences between individual domains. When they looked at charge distribution, however, the inventors observed that several basic residues that are otherwise well conserved between individual domains are mutated in mce 6. These include two residues which are lysines in mce 2, the strongest binding mce domain, but a serine and glutamine in mce 6, respectively, and a well conserved arginine which is replaced by a histidine in mce 6 (FIG. 18D). […]. (FIG. 18B and data not shown). […] GST-mce proteins were immobilized and incubated with liposomes. Bound liposomes were quantified using a molybdophosphoric acid assay. […]

heparin
BL21-MAM7 remaining attached [1]: ~40%

B1: MAM7: recombinant MBP-tagged V. parahaemolyticus multivalent adhesion molecule with seven mce domains in tandem (SEQ ID NO:1) (protein, listed as Vibrio parahaemolyticus)
chain: MSDQNNSQTSYVPDVKRSKGISPLWLLPILTMVLAGWLVVKSIHDAGQRVQIYFSDAAGLVAGRTTIRYQGLEVGMVRDINLSEDLGSIYVDADIYPEATKLLNDKTRFWLVKPTASLTGVSGLDALVSGNYISIQPGDGQEFETTFHALDSAPTDLRVSQGLNIKLKSRDLGGVSIGSQIVYKKIPIGAVYSYQLDEDAKSITIQANIQEQYRHIINDRSRFWNVSGIGASIGFEGVDVRLESMSALLGGAIAVDSPDDGEPVEENTEFRLYKDLKTAGRGIAIKIALPDDNKVSSEGAPIMYRGIEIGQVTDLSLSEGREVILASAAIQPAFSDMLTTGTRFVLEEAKVSLSGVENIANLVRGNFLTIVPGDGERSRRFTAIRKNVFNQQQEKSIAIRLISDNSFGLDSGANVLYKGIVVGSIINVGLVDEKKQTKHEVFMDVLIDHEYKHLIKSNNRFYVTGSASAELTESGLSVTVPPAKQLLTGSISFVSEGSESIQKEYQLFQNESLAELAQYNKTGSKTLMLFASELPPISKGSPLLYRNLPVGNVSDFHLVDGGVLIKATIENRFAYLVTPQTVFWNRSGIEIDASLSGVSVKAHPLKSLIEGGIAFDSVPGVENKVGERWKLYADQQKARKFGRVISLETDGTQEVLKGMPIEYQGVKVGEVTLVVPNFRRNLVEVTARILPEYVENIAVEGTHFWLTEPEIGLGGVKNLGALVSKSISVEPGNGKAKFDFQLEKGFDRVEGVMFTLQSEQRGSVQVGTPVLYRQMEVGQVTDVRLGEFADRVVSTIKIKPEYAYLVRQNSVFWNVSGVDVSIGITGANIKAGTIDSLVRGGIAFSTPEQSQIPPAAKRGHSFYLYPRADESWVQWRTPIPKP
modifications: MBP tag
binding to PA in lipid overlay assay [2]: bound to PA | effect on attachment of POR1 and pathogen-mediated cytotoxicity [3]: significantly decreased | PA content of liposomes at which binding was seen ([4]; MBP-MAM proteins, PC/PA liposomes): 1 mol % | reduction of the number of MAM7 molecules on cells [5]: over 100 fold | Kd ([6]; intact host cells, read-out: apparent KD for intact cells): 200 nM | Kd ([6]; saturation binding, ALEXAFLUOR-labeled MBP-MAM proteins, cultivated HeLa cells, read-out: Equilibrium dissociation constants (KD values)): 200 ± 100 nM

B2: mce 1: GST-tagged individual mce domain 1 of V. parahaemolyticus MAM7 (SEQ ID NO: 5) (protein, listed as Vibrio parahaemolyticus)
chain: AGQRVQIYFSDAAGLVAGRTTIRYQGLEVGMVRDINLSEDLGSIYVDADIYPEATKLLNDKTRFWLVKPTASLTGVSGLDALVSGNYISIQPG
modifications: GST tag
decrease of binding to PA-containing liposomes (apparent affinity) [4]: bound equally well | binding of liposomes to immobilized GST-mce proteins [7]: strong binding

B3: mce 2: GST-tagged individual mce domain 2 of V. parahaemolyticus MAM7 (SEQ ID NO: 6) (protein, listed as Vibrio parahaemolyticus)
chain: QGLNIKLKSRDLGGVSIGSQIVYKKIPIGAVYSYQLDEDAKSITIQANIQEQYRHIINDRSRFWNVSGIGASIGFEGVDVRLESMSALLGG
modifications: GST tag
decrease of binding to PA-containing liposomes (apparent affinity) [4]: bound equally well | binding of liposomes to immobilized GST-mce proteins [7]: strong binding

B4: mce 3: GST-tagged individual mce domain 3 of V. parahaemolyticus MAM7 (SEQ ID NO: 7) (protein, listed as Vibrio parahaemolyticus)
chain: RGIAIKIALPDDNKVSSEGAPIMYRGIEIGQVTDLSLSEGREVILASAAIQPAFSDMLTTGTRFVLEEAKVSLSGVENIANLVRGNFLTIVPG
modifications: GST tag
decrease of binding to PA-containing liposomes (apparent affinity) [4]: bound equally well | binding of liposomes to immobilized GST-mce proteins [7]: strong binding

B5: mce 4: GST-tagged individual mce domain 4 of V. parahaemolyticus MAM7 (SEQ ID NO: 8) (protein, listed as Vibrio parahaemolyticus)
chain: SIAIRLISDNSFGLDSGANVLYKGIVVGSIINVGLVDEKKQTKHEVFMDVLIDHEYKHLIKSNNRFYVTGSASAELTESGLSVTVP
modifications: GST tag
decrease of binding to PA-containing liposomes (apparent affinity) [4]: bound equally well | binding of liposomes to immobilized GST-mce proteins [7]: strong binding

B6: mce 5: GST-tagged individual mce domain 5 of V. parahaemolyticus MAM7 (SEQ ID NO: 9) (protein, listed as Vibrio parahaemolyticus)
chain: GSKTLMLFASELPPISKGSPLLYRNLPVGNVSDFHLVDGGVLIKATIENRFAYLVTPQTVFWNRSGIEIDASLSGVSVKAHPLKSLIEG
modifications: GST tag
decrease of binding to PA-containing liposomes (apparent affinity) [4]: ~6 fold | binding of liposomes to immobilized GST-mce proteins [7]: weaker binding

B7: mce 7: GST-tagged individual mce domain 7 of V. parahaemolyticus MAM7 (SEQ ID NO: 11) (protein, listed as Vibrio parahaemolyticus)
chain: EGVMFTLQSEQRGSVQVGTPVLYRQMEVGQVTDVRLGEFADRVVSTIKIKPEYAYLVRQNSVFWNVSGVDVSIGITGANIKAGTIDSLVRG
modifications: GST tag
decrease of binding to PA-containing liposomes (apparent affinity) [4]: ~20 fold | binding of liposomes to immobilized GST-mce proteins [7]: strong binding

B8: mce 6: GST-tagged individual mce domain 6 of V. parahaemolyticus MAM7 (SEQ ID NO: 10) (protein, listed as Vibrio parahaemolyticus)
chain: FGRVISLETDGTQEVLKGMPIEYQGVKVGEVTLVVPNFRRNLVEVTARILPEYVENIAVEGTHFWLTEPEIGLGGVKNLGALVSKSISVEPG
modifications: GST tag
decrease of binding to PA-containing liposomes (apparent affinity) [4]: more than 100 fold | binding of liposomes to immobilized GST-mce proteins [7]: weaker binding
